No end group written: not given here.
Molecular target: T1, purified IKKγ (human, UniProt Q9Y6K9 1-419, limits assumed)
T1 construct: also called NEMO
Assay: GST pull-down of purified IKKγ with GST-MUC1-CD fragments on glutathione beads, anti-IKKγ immunoblot (FIG. 5C)
Source text: FIG. 5C is a pair of photographs of immunoblots. […] The precipitates were immunoblotted (IB) with anti-IKKγ antibody. […] The molecular weights of proteins (as indicated on the left of the photographs) are expressed as kilodaltons (kDa).

T1 sequence (Q9Y6K9 whole entry): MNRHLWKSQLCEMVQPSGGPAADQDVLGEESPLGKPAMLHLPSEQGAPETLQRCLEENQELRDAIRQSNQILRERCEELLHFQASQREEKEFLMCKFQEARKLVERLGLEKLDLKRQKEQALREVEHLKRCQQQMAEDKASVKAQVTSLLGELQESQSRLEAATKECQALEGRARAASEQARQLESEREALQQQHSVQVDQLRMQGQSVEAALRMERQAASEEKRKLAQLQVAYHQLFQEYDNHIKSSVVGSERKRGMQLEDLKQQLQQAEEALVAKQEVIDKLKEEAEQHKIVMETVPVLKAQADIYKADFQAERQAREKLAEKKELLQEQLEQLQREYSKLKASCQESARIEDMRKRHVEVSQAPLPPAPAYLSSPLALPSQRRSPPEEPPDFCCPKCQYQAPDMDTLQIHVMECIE

B1: GST-MUC1-CD(1-45) (other)
chain: CQCRRKNYGQLDIFPARDTYHPMSEYPTYHTHGRYVPPSSTDRSP
modifications: cysteine pairing not given here; also: GST fusion, GST sequence and linker not given here
notes: not shown: glutathione S-transferase (GST) tag
Does B1 bind?
Result: no binding

Reference: patent US20080241125A1 (Dana-Farber, published 2008)
